B5: human aryl hydrocarbon receptor (AHR), full length (receptor, UniProt P35869 1-848, looked up)
chain: MNSSSANITYASRKRRKPVQKTVKPIPAEGIKSNPSKRHRDRLNTELDRLASLLPFPQDVINKLDKLSVLRLSVSYLRAKSFFDVALKSSPTERNGGQDNCRAANFREGLNLQEGEFLLQALNGFVLVVTTDALVFYASSTIQDYLGFQQSDVIHQSVYELIHTEDRAEFQRQLHWALNPSQCTESGQGIEEATGLPQTVVCYNPDQIPPENSPLMERCFICRLRCLLDNSSGFLAMNFQGKLKYLHGQKKKGKDGSILPPQLALFAIATPLQPPSILEIRTKNFIFRTKHKLDFTPIGCDAKGRIVLGYTEAELCTRGSGYQFIHAADMLYCAESHIRMIKTGESGMIVFRLLTKNNRWTWVQSNARLLYKNGRPDYIIVTQRPLTDEEGTEHLRKRNTKLPFMFTTGEAVLYEATNPFPAIMDPLPLRTKNGTSGKDSATTSTLSKDSLNPSSLLAAMMQQDESIYLYPASSTSSTAPFENNFFNESMNECRNWQDNTAPMGNDTILKHEQIDQPQDVNSFAGGHPGLFQDSKNSDLYSIMKNLGIDFEDIRHMQNEKFFRNDFSGEVDFRDIDLTDEILTYVQDSLSKSPFIPSDYQQQQSLALNSSCMVQEHLHLEQQQQHHQKQVVVEPQQQLCQKMKHMQVNGMFENWNSNQFVPFNCPQQDPQQYNVFTDLHGISQEFPYKSEMDSMPYTQNFISCNQPVLPQHSKCTELDYPMGSFEPSPYPTTSSLEDFVTCLQLPENQKHGLNPQSAIITPQTCYAGAVSMYQCQPEPQHTHVGQMQYNPVLPGQQAFLNKFQNGVLNETYPAELNNINNTQTTTHLQPLHHPSEARPFPDLTSSGFL
notes: Full length in yeast (PRSAHR) and in the Hsp90 co-IP (huAHR); also called huAHR; Ah receptor

For experiment [1], the target named is T1, AH receptor nuclear translocator (ARNT), full length (human, UniProt P27540 1-789).
T1 construct: Full length: in vitro translated, expressed in yeast (PL574) or transfected; Endogenous ARNT in the Hep3B experiment; also called huARNT; hARNT
Nature of the experiment: yeast interaction trap (mating), X-Gal overlay. As to the method: Interaction Screen Against Known bHLH-PAS Proteins. LexAbHLH-PAS fusion proteins ("baits") of HIF1α, HIF2α, MOP3, MOP4, AHR, ARNT, and CLOCK were transformed into the L40 strain of yeast. The full-length ("fish") MOP3 and ARNT plasmids were transformed into the AMR70 yeast strain, and these transformants were plated onto yeast complete media plates (Kaiser et al., 1994, in *Methods in Yeast Genetics*, Cold Spring Harbor Press, Plainview, N.Y.). The L40 yeast harboring the bait constructs were replica plated onto these yeast complete media plates and mated for 8 hr at 30° C. The plates were then replica plated onto selective media and grown for an additional day at 30° C. 5-Bromo-4-chloro-3-indolyl […]-galactoside (X-Gal) overlay assays were performed to determine the relative expression of the lacZ reporter gene (Bohen and Yamamoto, 1993, PNAS 90: 11424–11428). Western blot analysis, using LexA-specific sera, was performed on extract from each transformant to confirm expression of the fusion protein (see Example 1).

Experiment [2] has as its target T1, AH receptor nuclear translocator …. Nature of the experiment: functional data, assay not described.
Experiment [3] shares this target. Nature of the experiment: co-IP of 35S-labelled in vitro translated protein with ARNT-specific antiserum. As to the method:
(§1) 1. Interaction of MOPs with the AHR and ARNT in vitro; Coimmunoprecipitation experiments. We first performed coimmunoprecipitation experiments to determine if MOPs 1–4 had the capacity to interact with either the AHR or ARNT in vitro. These proteins were expressed in a reticulocyte lysate system in the presence of ^35S-methionine and then incubated in the presence or absence of the AHR or ARNT. Complex formation was assayed by coimmunoprecipitation with AHR or ARNT specific antisera, followed by quantitation of coimmunoprecipitated ^35S-labeled MOP by phosphoimage analysis. Interactions were identified by a reproducible increase in an AHR or ARNT-dependent precipitation of MOP protein. Because we have observed considerable variability in this coimmunoprecipitation assay, each experiment was performed at least three times.

In experiment [4] the target is B5. Nature of the experiment: co-IP of 35S-labelled in vitro translated protein with AHR-specific antiserum. As for the experimental part: as §1
A further experiment addresses T2, Hsp90.
T2 construct: Endogenous Hsp90 of the translation lysate
Nature of the experiment: co-IP of 35S-labelled in vitro translated protein with anti-Hsp90 antibody 3G3p90, phosphoimager. As for the experimental part:
Coimmunoprecipitation with Hsp90. Each MOP construct was in vitro translated in the presence of [^35S]-methionine in a TNT coupled transcription/translation system (Promega). Hsp90 immunoprecipitation assays were performed with monoclonal antibody 3G3p90 or a control IgM antibody, TEPC 183 (Sigma) essentially as described. Each immunoprecipitation was subjected to SDS-PAGE, and the resulting gel was dried. The level of radioactivity in each coprecipitated protein band was quantified on a Bio-Rad GS-363 Molecular Imager System. The amount of protein immunoprecipitated with the Hsp90 antibody is presented as a percentage of the amount of murine AHR immunoprecipitated in parallel assays.
4. Interaction of MOPs with Hsp90. In an effort to assess a MOP's ability to interact with Hsp90, we performed coimmunoprecipitation assays with anti Hsp90 antibodies. Given the remarkable stability of the Hsp90 complex with the AHR from the C57BL/6J mouse, we used this receptor species as a reference and compared all interactions relative to it. As additional controls, we immunoprecipitated ARNT and the human AHR as negative and positive controls, respectively. Despite our ability to readily detect huAHR-Hsp90 interactions, we were unable to detect ARNT, MOP2 or MOP5 interactions with Hsp90. In contrast, huAHR, MOP1, MOP3 and MOP4 all immunoprecipitated with HSP90-specific antisera. […]

T1 sequence (P27540 whole entry): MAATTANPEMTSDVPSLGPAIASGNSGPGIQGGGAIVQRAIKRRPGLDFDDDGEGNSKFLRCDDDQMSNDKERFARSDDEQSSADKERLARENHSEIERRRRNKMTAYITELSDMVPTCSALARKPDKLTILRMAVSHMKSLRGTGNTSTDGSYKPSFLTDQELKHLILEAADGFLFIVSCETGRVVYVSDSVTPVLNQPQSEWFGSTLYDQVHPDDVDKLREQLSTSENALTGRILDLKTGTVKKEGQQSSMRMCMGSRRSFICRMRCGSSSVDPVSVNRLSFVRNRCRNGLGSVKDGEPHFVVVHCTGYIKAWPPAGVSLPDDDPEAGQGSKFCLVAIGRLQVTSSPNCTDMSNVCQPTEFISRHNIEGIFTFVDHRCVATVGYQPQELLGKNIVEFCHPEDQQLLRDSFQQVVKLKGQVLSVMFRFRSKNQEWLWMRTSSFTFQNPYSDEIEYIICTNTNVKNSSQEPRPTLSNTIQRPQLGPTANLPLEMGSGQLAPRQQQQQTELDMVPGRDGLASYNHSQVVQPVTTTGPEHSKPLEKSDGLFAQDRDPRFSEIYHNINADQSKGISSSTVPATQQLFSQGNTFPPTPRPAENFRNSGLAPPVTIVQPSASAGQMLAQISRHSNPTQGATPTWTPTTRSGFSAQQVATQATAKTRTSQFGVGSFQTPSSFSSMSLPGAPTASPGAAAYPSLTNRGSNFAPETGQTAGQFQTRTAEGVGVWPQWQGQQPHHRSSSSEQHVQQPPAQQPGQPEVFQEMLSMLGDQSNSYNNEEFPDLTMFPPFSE

B1: LexA control (other, UniProt P0A7C2 1-202, looked up)
chain: MKALTARQQEVFDLIRDHISQTGMPPTRAEIAQRLGFRSPNAAEEHLKALARKGVIEIVSGASRGIRLLQEEEEGLPLVGRVAAGEPLLAQQHIEGHYQVDPSLFKPNADFLLRVSGMSMKDIGIMDGDLLAVHKTQDVRNGQVVVARIDDEVTVKRLKKQGNKVELLPENSEFKPIVVDLRQQSFTIEGLAVGVIRNGDWL
In the case of B1, in experiment [1], the binding result is given as “no binding”.

B2: MOP6 (other)
chain: MAPTKPSFQQDPSRRERLQALRKEKSRDAARSRRGKENFEFYELAKLLPLPAAITSQLDKASIIRLTISYLKMRDFANQGDPPWNLRMEGPPPNTSVKGAQRRRSPSALAIEVFEAHLGSHILQSLDGFVFALNQEGKFLYISETVSIYLGLSQVELTGSSVFDYVHPGDHVEMAEQLGMKLPPGRGLLSQGTAEDGASSASSSSQSETPEPVESTSPSLLTTDNTLERSFFIRMKSTLTKRGVHIKSSGYKVIHITGRLRLRVSLSHGRTVPSQIMGLVVVAHALPPPTINEVRIDCHMFVTRVNMDLNIIYCENRISDYMDLTPVDIVGKRCYHFIHAEDVEGIRHSHLDLLNKGQCVTKYYRWMQKNGGYIWIQSSATIAINAKNANEKNIIWVNYLLSNPEYKDTPMDIAQLPHLPEKTSESSETSDSESDSKDTSGITEDNENSKSDEKGNQSENSEDPEPDRKKSGNACDNDMNCNDDGHSSSNPDSRDSDDSFEHSDFENPKAGEDGFGALGAMQIKVERYVESESDLRLQNCESLTSDSAKDSDSAGEAGAQASSKHQKRKKRRKRQKGGSASRRRLSSASSPGGLDAGLVEPPRLLSSPNSASVLKIKTEISEPINFDNDSSIWNYPPNREISRNESPYSMTKPPSSEHFPSPQGGGGGGGGGGGLHVAIPDSVLTPPGADG
notes: Mentioned only in the general description
With B2, the binding result in experiment [2] is “binds”.

B3: MOP4 (other)
chain: MDEDEKDRAKRASRNKSEKKRRDQFNVLIKELSSMLPGNTRKMDKTTVLEEVIGFLQKHNEVSAQTEICDIQQDWKPSFLSNEEFTQLMLEALDGFIIAVTTDGSIIYVSDSITPLLGHLPSDVMDQNLLNFLPEQEHSEVYKILSSHMLVTDSPSPEYLKSDGDLEFYCHLLRGSLNPKEFPTYEYIKFVGNFRSYNNVPSPSCNGFDNTLSRPCRVPLGKEVCFIATVRLATPQFLKEMCIVDEPLEEFTSRHSLEWKFLFLDHRAPPIIGYLPFEVLGTSGYDYYHIDDLELLARCHQHLMQFGKGKSCCYRFLTKGQQWIWLQTHYYITYHQWNSKPEFIVCTHSVVSYADVRVERRQELALEDPPSEALHSSALKDKGSSLEPRQHFNALDVGASGLNTSHSPSASSRSSHKSSHTAMSEPTSTPTKLMAEASTPALPRSATLPQELPVPGLSQAATMPAPLPSPSSCDLTQQLLPQTVLQSTPAPMAQFSAQFSMFQTIKDQLEQRTRILQANIRWQQEELHKIQEQLCLVQDSNVQMFLQQPAVSLSFSSTQRPEAQQQLQQRSAAVTQPQLGAGPQLPGQISSAQVTSQHLLRESSVISTQGPKPMRSSQLMQSSGRS
notes: also called huMOP4
As to B3, the binding result in experiment [3] and in experiment [4] was “no binding” each time. Besides, the “percent of the amount of murine AHR immunoprecipitated with the Hsp90 antibody” value with Hsp90 is 31%.

B4: LexAbHLH-PAS fusion of CLOCK (PL828) (other, UniProt P0A7C2 1-202, looked up)
chain: MKALTARQQEVFDLIRDHISQTGMPPTRAEIAQRLGFRSPNAAEEHLKALARKGVIEIVSGASRGIRLLQEEEEGLPLVGRVAAGEPLLAQQHIEGHYQVDPSLFKPNADFLLRVSGMSMKDIGIMDGDLLAVHKTQDVRNGQVVVARIDDEVTVKRLKKQGNKVELLPENSEFKPIVVDLRQQSFTIEGLAVGVIRNGDWLMLFTVSCSKMSSIVDRDDSSIFDGLVEEDDKDKAKRVSRNKSEKKRRDQFNVLIKELGSMLPGNARKMDKSTVLQKSIDFLRKHKEITAQSDASEIRQDWKPTFLSNEEFTQLMLEALDGFFLAIMTDGSIIYVSESVTSLLEHLPSDLVDQSIFNFIPEGEHSEVYKILSTHLLESDSLTPEYLKSKNQLEFCCHMLRGTIDPKEPSTYEYVKFIGNFKSLNSVSSSAHNGFEGTIQRTHRPSYEDRVCFVATVRLATPQFIKEMCTVEEPNEEFTSRHSLEWKFLFLDHRAPPIIGYLPFEVLGTSGYDYYHVDDLENLAKCHEHLMQYGKGKSCYYRFLTKGQQWIWLQTHYYITYHQWNSRPEFIVCTHTVVSYAEVRAERRRELG
notes: range 1-202;domain: bHLH-PAS domains; also called LexA fusion of CLOCK
Take B4: in experiment [1], the binding result is recorded as “no binding”.

As for B5, in the experiment with Hsp90, the “percent of the amount of murine AHR immunoprecipitated with the Hsp90 antibody” value was determined as 53%.
